According to patent US20220259593A1, “CONTROL OF MAMMALIAN GENE DOSAGE USING CRISPR” (The Regents of the University of California, priority 2019, published 2022):
Substitutions are numbered along the chain they refer to.

B1: cr540 (nucleic acid)
guide: GTTTAAGAGCTAAGCTGGAAACAGCATAGCAACTTTAAATAATGCTAGTCAGTTATCAACTTGAAAAAGTGGCACCGAGTCGGTGCT
modifications: listed as DNA, chemistry not fully specified
B2: cr990 (nucleic acid)
guide: B1 guide with G29T, C33G, T34C, T43G, A51C, C57G
modifications: listed as DNA, chemistry not fully specified
B3: cr790 (nucleic acid)
guide: B1 guide with T43G, A51C, G77A, C81T
modifications: listed as DNA, chemistry not fully specified
B4: cr551 (nucleic acid)
guide: B1 guide with A26T, C33G, T43G, A51C
modifications: listed as DNA, chemistry not fully specified
B5: cr434 (nucleic acid)
guide: B1 guide with C33G, T43G, A51C, G63C, A65T
modifications: listed as DNA, chemistry not fully specified
B6: cr797 (nucleic acid)
guide: B1 guide with C33G, T43G, A51C, T54G
modifications: listed as DNA, chemistry not fully specified
B7: cr884 (nucleic acid)
guide: B1 guide with C33G, T43G, A51C, A59C, T62A, A67T, T70G, G72T, C86A
modifications: listed as DNA, chemistry not fully specified
B8: cr610 (nucleic acid)
guide: B1 guide with C33G, T43G, A51C, C60G, T61A, A68T, G69C, G72A, C86T
modifications: listed as DNA, chemistry not fully specified
B9: cr118 (nucleic acid)
guide: B1 guide with A23G, C33G, T43G, A51C
modifications: listed as DNA, chemistry not fully specified
B10: cr412 (nucleic acid)
guide: B1 guide with C33G, T43G, A51C, C60G, G69C
modifications: listed as DNA, chemistry not fully specified
B11: cr565 (nucleic acid)
guide: B1 guide with C33G, T43G, A51C, T61G, T62C, A67G, A68C
modifications: listed as DNA, chemistry not fully specified
B12: cr929 (nucleic acid)
guide: B1 guide with C33G, T43G, A51C, G72T
modifications: listed as DNA, chemistry not fully specified
B13: cr858 (nucleic acid)
guide: B1 guide with A20G, C33G, T43G, A51C
modifications: listed as DNA, chemistry not fully specified
B14: cr896 (nucleic acid)
guide: B1 guide with C33G, T43G, A51C, C73A, A74C, T84G, G85T
modifications: listed as DNA, chemistry not fully specified
B15: cr334 (nucleic acid)
guide: B1 guide with C33G, T43G, A51C, C60G, T62G, A67C, G69C, G77A, C81T
modifications: listed as DNA, chemistry not fully specified
B16: cr934 (nucleic acid)
guide: B1 guide with C33G, T43G, A47T, A51C, T56C, G79T
modifications: listed as DNA, chemistry not fully specified
B17: cr444 (nucleic acid)
guide: B1 guide with C33G, T43G, A51C, A65C
modifications: listed as DNA, chemistry not fully specified
B18: cr140 (nucleic acid)
guide: B1 guide with C33G, T43G, A51C, C60T, T61C, A68G, G69A
modifications: listed as DNA, chemistry not fully specified
B19: cr600 (nucleic acid)
guide: B1 guide with C33G, T43G, A51C, C60G, A65G, G69C
modifications: listed as DNA, chemistry not fully specified
B20: cr710 (nucleic acid)
guide: B1 guide with C33G, T43G, A51C, C75G, G83C
modifications: listed as DNA, chemistry not fully specified
B21: cr345 (nucleic acid)
guide: B1 guide with A21C, C33G, T43G, A51C
modifications: listed as DNA, chemistry not fully specified
B22: cr978 (nucleic acid)
guide: B1 guide with C33G, T43G, A51C, C73A, C75A, G83T, G85T
modifications: listed as DNA, chemistry not fully specified
B23: cr561 (nucleic acid)
guide: B1 guide with C33G, T43G, A47T, A51C
modifications: listed as DNA, chemistry not fully specified
B24: cr801 (nucleic acid)
guide: B1 guide with C33G, T43G, A51C, A59G, T70C, C73A, C75G, G83C, G85T
modifications: listed as DNA, chemistry not fully specified
B25: cr925 (nucleic acid)
guide: B1 guide with C33G, T43G, A51C, A59T, T61G, T62A, A67T, A68C, T70A
modifications: listed as DNA, chemistry not fully specified
B26: cr948 (nucleic acid)
guide: B1 guide with C33G, T43G, A51C, A67G
modifications: listed as DNA, chemistry not fully specified
B27: cr888 (nucleic acid)
guide: B1 guide with C33G, T43G, A51C, G63T, A65C
modifications: listed as DNA, chemistry not fully specified
B28: cr020 (nucleic acid)
guide: B1 guide with G7T, C33G, T43G, A51C
modifications: listed as DNA, chemistry not fully specified
B29: cr323 (nucleic acid)
guide: B1 guide with A32G, C33G, T43G, A51C, A65C
modifications: listed as DNA, chemistry not fully specified
B30: cr019 (nucleic acid)
guide: B1 guide with G7C, C33G, T43G, A51C
modifications: listed as DNA, chemistry not fully specified
B31: cr408 (nucleic acid)
guide: B1 guide with C33G, T43G, A51C, A65G, G72A, C86T
modifications: listed as DNA, chemistry not fully specified
B32: cr730 (nucleic acid)
guide: B1 guide with C33G, T43G, A51C, C73G, A74G, C75G, G83C, T84C, G85C
modifications: listed as DNA, chemistry not fully specified
B33: cr603 (nucleic acid)
guide: B1 guide with C33G, T43G, A51C, A65G, A66C
modifications: listed as DNA, chemistry not fully specified
B34: cr557 (nucleic acid)
guide: B1 guide with A19C, C33G, T43G, A51C
modifications: listed as DNA, chemistry not fully specified
B35: cr283 (nucleic acid)
guide: B1 guide with C33G, T43G, A51C, G72A
modifications: listed as DNA, chemistry not fully specified
B36: cr464 (nucleic acid)
guide: B1 guide with C33G, T43G, A51C, A59C, T70G, G77A, C81T
modifications: listed as DNA, chemistry not fully specified
B37: cr592 (nucleic acid)
guide: B1 guide with C33G, T43G, C45T, G48A, A51C
modifications: listed as DNA, chemistry not fully specified
B38: cr971 (nucleic acid)
guide: B1 guide with C33G, T43G, A51C, G63A, A65T
modifications: listed as DNA, chemistry not fully specified
B39: cr366 (nucleic acid)
guide: B1 guide with C33G, T43G, A51C, A59G, T70C, C76T, G82A
modifications: listed as DNA, chemistry not fully specified
B40: cr018 (nucleic acid)
guide: B1 guide with G7A, C33G, T43G, A51C
modifications: listed as DNA, chemistry not fully specified
B41: cr701 (nucleic acid)
guide: B1 guide with C33G, T43G, A51C, G79C
modifications: listed as DNA, chemistry not fully specified

Tested on: K562 CRISPRi cells
Assay: Constant region variant library pooled growth screen, K562
Type: cell-based, human
Conditions: sgRNA constant region variants
Summary of the method: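 Pooled library transduced into K562 CRISPRi cells in duplicate, puromycin-selected, grown at >2000× coverage and sampled after 4 to 8 days. Phenotypes per targeting sequence:constant region pair were normalized to the unmodified-scaffold pairing to give relative activity.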

[1] = activity relative to the original, un-modified constant region cr995
[2] = relative to the original, un-modified constant region cr995 (= 1)

| Molecule | Mean relative activity [1] | Mean relative activity [2] |
| --- | --- | --- |
| B1 | −0.0122 | – |
| B2 | −0.0163 | – |
| B3 | −0.01697 | – |
| B4 | −0.109 | – |
| B5 | 1.027 | – |
| B6 | 1.027 | – |
| B7 | – | 1.027 |
| B8 | – | 1.027 |
| B9 | – | 1.025 |
| B10 | – | 1.025 |
| B11 | 1.085 | – |
| B12 | – | 1.025 |
| B13 | – | 1.025 |
| B14 | – | 1.025 |
| B15 | – | 1.025 |
| B16 | – | 1.024 |
| B17 | – | 1.023 |
| B18 | – | 1.023 |
| B19 | – | 1.021 |
| B20 | – | 1.021 |
| B21 | – | 1.021 |

| Molecule | Mean relative activity [1] | Mean relative activity [2] |
| --- | --- | --- |
| B22 | – | 1.021 |
| B23 | – | 1.021 |
| B24 | – | 1.02 |
| B25 | 1.084 | – |
| B26 | – | 1.02 |
| B27 | – | 1.02 |
| B28 | – | 1.02 |
| B29 | – | 1.02 |
| B30 | – | 1.019 |
| B31 | – | 1.018 |
| B32 | – | 1.018 |
| B33 | – | 1.018 |
| B34 | – | 1.018 |
| B35 | – | 1 .01760152 |
| B36 | – | 1.017 |
| B37 | – | 1.017 |
| B38 | – | 1.017 |
| B39 | – | 1.017 |
| B40 | – | 1.017 |
| B41 | – | 1.016 |
